According to US20220396612A1 (UNIVERSIT DE TOURS, published 2022):

T1: virus-like particles (VLPs) of BK polyomavirus VP-1 protein, serotype II (BK virus (BKPyV), serotype II, UniProt P14996 1-362)
T1 construct: native VLPs; also called VLP II
T1 chain: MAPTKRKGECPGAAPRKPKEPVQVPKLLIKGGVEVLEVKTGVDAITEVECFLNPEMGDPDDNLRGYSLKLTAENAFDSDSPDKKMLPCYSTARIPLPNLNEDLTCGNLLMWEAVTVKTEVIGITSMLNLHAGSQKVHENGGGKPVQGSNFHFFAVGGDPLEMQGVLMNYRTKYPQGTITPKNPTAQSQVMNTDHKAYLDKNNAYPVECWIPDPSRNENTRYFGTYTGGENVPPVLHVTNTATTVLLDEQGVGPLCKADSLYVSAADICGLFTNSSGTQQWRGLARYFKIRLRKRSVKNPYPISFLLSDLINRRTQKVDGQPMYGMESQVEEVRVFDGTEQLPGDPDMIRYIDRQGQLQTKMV

T2: virus-like particles (VLPs) of BK polyomavirus VP-1 protein, serotype Ib2 (BK virus (BKPyV), serotype Ib2, PA …, UniProt P03088 1-362)
T2 construct: native VLPs; also the immunogen; also called VLP Ib2; BK Ib2
T2 chain: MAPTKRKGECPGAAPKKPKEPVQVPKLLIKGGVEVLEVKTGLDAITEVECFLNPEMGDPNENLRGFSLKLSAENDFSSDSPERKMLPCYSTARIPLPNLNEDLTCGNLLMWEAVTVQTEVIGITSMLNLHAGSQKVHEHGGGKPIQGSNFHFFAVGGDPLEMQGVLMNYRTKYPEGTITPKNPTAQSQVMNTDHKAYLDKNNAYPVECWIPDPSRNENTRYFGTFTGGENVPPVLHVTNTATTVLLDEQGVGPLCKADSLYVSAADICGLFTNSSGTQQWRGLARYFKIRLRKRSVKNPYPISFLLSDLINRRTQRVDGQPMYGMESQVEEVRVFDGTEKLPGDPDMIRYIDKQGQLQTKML

T3: virus-like particles (VLPs) of BK polyomavirus VP-1 protein, serotype IV (BK virus (BKPyV), serotype IV, UniProt P14996 1-362)
T3 construct: native VLPs; also called VLP IV
T3 chain: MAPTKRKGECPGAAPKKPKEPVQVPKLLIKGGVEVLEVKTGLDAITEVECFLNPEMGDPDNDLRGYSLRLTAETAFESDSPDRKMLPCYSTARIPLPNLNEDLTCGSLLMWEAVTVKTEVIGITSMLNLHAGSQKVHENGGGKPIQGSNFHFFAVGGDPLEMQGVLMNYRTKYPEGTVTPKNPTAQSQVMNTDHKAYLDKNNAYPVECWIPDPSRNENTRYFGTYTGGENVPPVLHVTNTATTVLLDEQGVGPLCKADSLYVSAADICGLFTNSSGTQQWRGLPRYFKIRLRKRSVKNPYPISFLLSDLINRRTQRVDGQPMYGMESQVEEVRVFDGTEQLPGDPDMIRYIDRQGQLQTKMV

T4: virus-like particles (VLPs) of BK polyomavirus VP-1 protein, serotype Ia (BK virus (BKPyV), serotype Ia, UniProt P03088 1-361)
T4 construct: self-assembled native VLPs coated on ELISA plates; also called VLP Ia; BKV VP-1, serotype Ia
T4 chain: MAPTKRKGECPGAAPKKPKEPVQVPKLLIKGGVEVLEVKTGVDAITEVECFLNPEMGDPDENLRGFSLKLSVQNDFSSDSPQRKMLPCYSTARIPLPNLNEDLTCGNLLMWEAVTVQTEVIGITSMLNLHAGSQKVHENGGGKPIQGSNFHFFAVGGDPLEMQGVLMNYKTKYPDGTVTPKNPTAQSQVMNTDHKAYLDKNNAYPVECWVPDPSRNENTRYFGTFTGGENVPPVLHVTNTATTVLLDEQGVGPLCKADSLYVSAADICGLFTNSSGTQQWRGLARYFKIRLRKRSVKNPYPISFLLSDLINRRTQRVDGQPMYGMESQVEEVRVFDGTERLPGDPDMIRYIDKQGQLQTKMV


Experiments:
[1] = target: T1, virus-like particles (VLPs) of BK …; assay: ELISA on coated VLP; supernatant 1/320
Protocol: (§1) To do this, the VLPs produced were deposited at a concentration of 1 μg/mL in PBS and incubated overnight at +4° C. The wells were then blocked for 1 h at +37° C. with a PBS/FCS (phosphate-buffered saline/fetal calf serum) mixture. After dilution in a dilution buffer containing FCS, PBS and Tween® 20, the various hybridoma culture supernatants were added for 1 h at +37° C. The wells were washed four times in a row with Wash Buffer and a secondary anti-mouse antibody coupled to peroxidase was added to the 1:2000 dilution for 1 h at +37° C. The wells were washed four more times and the substrate (OPD (ortho phenylene diamine)+H₂O₂) was added for 30 min at room temperature. A stop solution (H₂SO₄ 4N) was then added and each well was read by measuring the absorbance at 492 nm with a spectrophotometer. The value obtained for the average of the control wells (PBS in the first step) is subtracted from the optical density values obtained for each well.

[2] = target: T2, virus-like particles (VLPs) of BK …; assay: ELISA on coated VLP; supernatant 1/320
Protocol: as §1

[3] = target: T3, virus-like particles (VLPs) of BK …; assay: ELISA on coated VLP; supernatant 1/320
Protocol: as §1

[4] = target: T4, virus-like particles (VLPs) of BK …; assay: ELISA on coated VLP; supernatant 1/320
Protocol: as §1

[5] = target: T1, virus-like particles (VLPs) of BK …; assay: ELISA on coated VLP; supernatant 1/2 560
Protocol: as §1

[6] = target: T2, virus-like particles (VLPs) of BK …; assay: ELISA on coated VLP; supernatant 1/2 560
Protocol: as §1

[7] = target: T3, virus-like particles (VLPs) of BK …; assay: ELISA on coated VLP; supernatant 1/2 560
Protocol: as §1

[8] = target: T4, virus-like particles (VLPs) of BK …; assay: ELISA on coated VLP; supernatant 1/2 560
Protocol: as §1

[9] = target: T1, virus-like particles (VLPs) of BK …; assay: ELISA on coated VLP; supernatant 1/20 480
Protocol: as §1

[10] = target: T2, virus-like particles (VLPs) of BK …; assay: ELISA on coated VLP; supernatant 1/20 480
Protocol: as §1

[11] = target: T3, virus-like particles (VLPs) of BK …; assay: ELISA on coated VLP; supernatant 1/20 480
Protocol: as §1

[12] = target: T4, virus-like particles (VLPs) of BK …; assay: ELISA on coated VLP; supernatant 1/20 480
Protocol: as §1

Row | Binder | OD 492 nm [1] [OD] | OD 492 nm [2] [OD] | OD 492 nm [3] [OD] | OD 492 nm [4] [OD] | OD 492 nm [5] [OD] | OD 492 nm [6] [OD] | OD 492 nm [7] [OD] | OD 492 nm [8] [OD] | OD 492 nm [9] [OD] | OD 492 nm [10] [OD] | OD 492 nm [11] [OD] | OD 492 nm [12] [OD]
1 | monoclonal antibody ‘H6’ secreted by clone BK6A2H6 (antibody, V domains shown) VH: EVQLQQSGPELVKPGASVKISCKASGYSFTGYFMNWVKQSHGKSLEWIGRINPYNGDTFYNQKFKGKATLTVDKSSSTAHMELLSLTSEDSAVYYCGSYYYGDYFDYWGQGTTLTVSS VL: SIVMTQIPKFLLVSEGDRVTITCKASQSVSNDVAWYQQKSGQSPKLLIYYASNRYTGVPDRFTGSGYGTDFTFTISTVQAEDLAVYFCQQDYSSPLTFGAGTKLELKR | 0.13 | 0.29 | 2.66 | 3.03 | 0.06 | 0.1 | 0.54 | 0.46 | 0.06 | 0.06 | 0.12 | 0.16
2 | monoclonal antibody ‘F6’ secreted by clone BK6A2F6 (antibody) heavy: EVQLQQSGPELVKPGASVKISCKASGYSFTGYFMNWVKQSHGKSLEWIGRINPYNGDTFYNQKFKGKATLTVDKSSSTAHMELLSLTSEDSAVYYCGSYYYGDYFDYWGQGTTLTVSSAKTTPPSVYPLAPGSAAQTNSMVTLGCLVKGYFPEPVTVTWNSGSLSSGVHTFPAVLQSDLYTLSSSVTVPSSTWPSETVTCNVAHPASSTKVDKKIVPRDCGCKPCICTVPEVSSVFIFPPKPKDVLTITLTPKVTCVVVDISKDDPEVQFSWFVDDVEVHTAQTQPREEQFNSTFRSVSELPIMHQDWLNGKEFKCRVNSAAFPAPIEKTISKTKGRPKAPQVYTIPPPKEQMAKDKVSLTCMITDFFPEDITVEWQWNGQPAENYKNTQPIMDTDGSYFVYSKLNVQKSNWEAGNTFTCSVLHEGLHNHHTEKSLSHSPGK light: […] | 0.16 | 0.29 | 3.16 | 3.16 | 0.07 | 0.09 | 1.28 | 1.06 | 0.1 | 0.11 | 0.26 | 0.27
